Measured values as given in publication PMC2800238.

Target: nsp12 (RdRp) (SARS-CoV Frankfurt-1, UniProt P0C6X7 4370-5301)
Test: EMSA

Row | Binder | Kd [µM]
1 | GCUAUGUGAGAUUAAGUUAU (ssRNA) [SAV557R ssRNA] | 0.1
2 | SAV557R/SAV481R primer-template duplex (dsRNA) RNA 1: GCUAUGUGAGAUUAAGUUAU RNA 2: UUUUUUUUUUAUAACUUAAUCUCACAUAGC | 0.13
